Target: T1, human PD-L1 on stably transfected cell line HEK293T/hPD-L1 (human, UniProt Q9NZQ7 19-290)
T1 construct: whole, on cells
Assay: flow cytometry on HEK293T/hPD-L1 cells, 10 ug/ml nanobody, anti-human IgG Fc (FITC)
Protocol: The stably transfected cell line HEK293T/hPD-L1 was digested and centrifuged, and the supernatant was removed. The cells were washed once with PBS and the cell density was adjusted to 2.5×10⁶ cells/mL. 100 μL of cell suspension was added to each cell sample, i.e., 2.5×10⁵ cells/sample. Different anti-human PD-L1 candidate nanobodies (at a concentration of 10 μg/ml) were added into the samples. The samples were incubated in a 4° C. refrigerator for 20 min and then centrifuged to remove the supernatant, and washed once with PBS. The diluted antibody anti-human IgG Fc (FITC) was used as a secondary antibody to resuspend the above cells. The abtained samples were incubated in a 4° C. refrigerator for 20 min and centrifuged to remove the supernatant. The cells were washed twice with PBS, transferred to a flow tube; and detected on a flow cytometer to obtain the binding activity of the candidate nanobody with human PD-L1, as shown in FIG. 1.

T1 sequence (Q9NZQ7 19-290): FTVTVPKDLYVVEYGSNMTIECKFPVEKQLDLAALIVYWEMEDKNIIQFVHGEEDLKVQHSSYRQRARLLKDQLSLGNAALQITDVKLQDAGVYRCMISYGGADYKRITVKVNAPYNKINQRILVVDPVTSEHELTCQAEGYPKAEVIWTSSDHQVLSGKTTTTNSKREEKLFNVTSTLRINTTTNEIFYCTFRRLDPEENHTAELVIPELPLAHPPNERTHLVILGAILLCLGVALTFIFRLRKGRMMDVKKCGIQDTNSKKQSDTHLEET

binding result	Binder
binds	h_Nb5 (expressed from pFUSE-hIgG1-Fc) (Fc fusion, not shown: human IgG1 Fc as encoded by the pFUSE-hIgG1-Fc vector) DVQLQESGGGAVQSGESLRLSCAASGRDLMFYDVAWFRQAPGKEREGVSYIRSSGTLTKYADSVKGRFTISRDNDKNTVSLQMNSLNPEDTAKYYCAARLQSATSHSDLREDEFNSWGQGTQVTVSS
binds	h_Nb4 (expressed from pFUSE-hIgG1-Fc) (Fc fusion, not shown: human IgG1 Fc as encoded by the pFUSE-hIgG1-Fc vector) DVQLQESGGGLVQAGGSLRLSCAAPSRMFSGYTMGWYRQAPGKQRELVAQIANGGFTDYIDSVKGRFSISRDTVLNMMYLQMNSLKPEDTAVYYCNLVLVNGIPTRNWGQGTQVTVSS
binds	h_Nb1 (expressed from pFUSE-hIgG1-Fc) (Fc fusion, Candidates were cloned into pFUSE-mIgG2b-Fc and pFUSE-hIgG1-Fc; not shown: human IgG1 Fc as encoded by the pFUSE-hIgG1-Fc vector) DVQLQESGGGLVQPGGSLRLSCAASGFTFSSYAMSWVRQAPGKGLEWVSDINSGGDNTDYADSVKGRFTISRDNAKNTLYLQMNSLKPEDTAVYYCARGPKLCFSSWGQGTQVTVSS
binds	h_Nb12 (expressed from pFUSE-hIgG1-Fc) (Fc fusion, not shown: human IgG1 Fc as encoded by the pFUSE-hIgG1-Fc vector) DVQLQESGGGLVQAGGSLRLSCAASGRTFSSRAMGWFRQAPGKEREFVAAISGSGRNTYYADSVKGRFTISRDNAKNSVNLQMNSLKPEDTAVYYCNAAGGGITIATMTQRTQYDYWGQGTQVTVSS
binds	h_Nb9 (expressed from pFUSE-hIgG1-Fc) (Fc fusion, not shown: human IgG1 Fc as encoded by the pFUSE-hIgG1-Fc vector) DVQLQESGGGLVQPGGSLRLSCASSGSIFGLGVKGWYRQPPGNQREMVAQIISGGRISYADSVKGRFTISRDNAKNTVYLQMNSLKPEDTAVYYCNAWGPGQRNYWGRGTQVTVSS
binds	h_Nb2 (expressed from pFUSE-hIgG1-Fc) (Fc fusion, Candidates were cloned into pFUSE-mIgG2b-Fc and pFUSE-hIgG1-Fc; not shown: human IgG1 Fc as encoded by the pFUSE-hIgG1-Fc vector) DVQLQESGGGLVQPGGSLRLSCAASGFTFGDRWMYWLRQAPGKGLEWVSSINPAGRSTYYADSVKGRFTISRDNAKNTLYLQMNSLKSEDTAVYYCTKDPGGYQKGQGTQVTVSS
binds	h_Nb13 (expressed from pFUSE-hIgG1-Fc) (Fc fusion, not shown: human IgG1 Fc as encoded by the pFUSE-hIgG1-Fc vector) DVQLQESGGGLVQPGGSLRLSCAASGSIFSINAMGWYRQAPGKSRELVAAITSGGSTNYADSVKGRFTISRDTAKNTVYLLMNSLEPEDTAVYYCNVERRRPPHYLSEYDFDWGQGTQVTVSS
binds	h_Nb26 (expressed from pFUSE-hIgG1-Fc) (Fc fusion, not shown: human IgG1 Fc as encoded by the pFUSE-hIgG1-Fc vector) DVQLQESGGGLVQPGGSLRLSCAAPGSIFRINAMGWYRQAPGKQRELVAAITSGGSTNYADSVQGRFTISRDNAKNTVYLQMNSLKPEDTAVYYCNVERRRPPHYYSDYDFDWGQGTQVTVSS
binds	h_Nb6 (expressed from pFUSE-hIgG1-Fc) (Fc fusion, not shown: human IgG1 Fc as encoded by the pFUSE-hIgG1-Fc vector) DVQLQESGGGLAQPGGSLRLSCAASGFTFSSYAMSWARQAPGKGLEWVAGIYRGGSDTYYADSVKGRFTISRDNTKNTLYLQMNSLKPEDTALYYCIQGWGLGYANYDYWGQGTQVTVSS

Target: T2, human PD-L1 protein (ELISA antigen) (human, UniProt Q9NZQ7 19-238, limits assumed)
T2 construct: One molecule is used for both ELISAs; also called PD-L1-biotin protein
T2 sequence (Q9NZQ7 19-238 limits assumed): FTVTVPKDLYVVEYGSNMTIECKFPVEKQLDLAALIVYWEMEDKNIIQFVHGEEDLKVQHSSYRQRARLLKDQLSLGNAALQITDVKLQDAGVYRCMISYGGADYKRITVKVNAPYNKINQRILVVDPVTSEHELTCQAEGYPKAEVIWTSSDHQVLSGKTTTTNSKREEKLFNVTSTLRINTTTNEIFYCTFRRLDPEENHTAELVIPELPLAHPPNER
Assay: relative to original antibody h_Nb2 (SEQ ID NO. 5); ELISA comparison per Example 10

Improved value of relative affinity	Binder
3.41	h_Nb2_P100Q (VHH, also called 96) VHH: DVQLQESGGGLVQPGGSLRLSCAASGFTFGDRWMYWLRQAPGKGLEWVSSINPAGRSTYYADSVKGRFTISRDNAKNTLYLQMNSLKSEDTAVYYCTKDQGGYQKGQGTQVTVSS
7.21	h_Nb2_P100R (VHH, also called 95) VHH: DVQLQESGGGLVQPGGSLRLSCAASGFTFGDRWMYWLRQAPGKGLEWVSSINPAGRSTYYADSVKGRFTISRDNAKNTLYLQMNSLKSEDTAVYYCTKDRGGYQKGQGTQVTVSS

Target: T2, human PD-L1 protein (ELISA antigen)
Assay: ELISA; PD-L1 protein on NeutrAvidin plate, crude nanobody, anti-HA detection; positive = absorbance more than three times control
Protocol: After several rounds of panning, TG1 competent cells in the logarithmic phase of growth were infected with the eluted phages, gradiently diluted and spread on the plate for overnight culture. 96 clones were picked and inoculated into a 96-well round-bottom plate with 100 μL of culture medium per well and left to be incubated overnight as the master plate. Then 10 μL of overnight cultured bacterial solution was pipetted into a 96-well deep-bottom plate with 1 mL of culture medium per well to induce nanobody expression which was then subjected to crude purification. The 96-well ELISA plate was coated with 5 μg/mL NeutrAvidin solution at 4° C., 700 rpm, overnight. The next day, 2% skim milk powder was added to block the plate at room temperature and washed 3 times with a solution containing bovine serum albumin BSA. 100 μL 3 μg/mL PD-L1 protein was added and incubated at room temperature for 30 minutes, then washed. The crudely extracted nanobody was added and incubated at room temperature for 1 h followed by washing. Mouse anti-HA primary antibody was added and the mixture was incubated at room temperature for 1 hour followed by washing. Goat anti-mouse alkaline phosphatase-labeled secondary antibody was added and the mixture was incubated at room temperature for 1 hour followed by washing. Alkaline phosphatase colorimetric solution was added for 10 minutes, and the absorption value was detected at 405 nm on a microplate reader. A well with an absorption value that is more than three times the absorption value of the control group is preliminarily determined as a positive well. The positive clones were transferred to a shaking tube for culture in order to extract the plasmid and then subjected to sequencing. Finally, 11 candidate positive clones were obtained.

binding result	Binder
binds	h_Nb5 VHH (VHH) VHH: DVQLQESGGGAVQSGESLRLSCAASGRDLMFYDVAWFRQAPGKEREGVSYIRSSGTLTKYADSVKGRFTISRDNDKNTVSLQMNSLNPEDTAKYYCAARLQSATSHSDLREDEFNSWGQGTQVTVSS
binds	h_Nb4 VHH (VHH) VHH: DVQLQESGGGLVQAGGSLRLSCAAPSRMFSGYTMGWYRQAPGKQRELVAQIANGGFTDYIDSVKGRFSISRDTVLNMMYLQMNSLKPEDTAVYYCNLVLVNGIPTRNWGQGTQVTVSS
binds	h_Nb30 VHH (VHH) VHH: DVQLQESGGGLVQPGESLRVSCAASGFTFSNYYMTWVRQAPGKGLEWVSFLNPSSSERFYADSVKGRFTISRDNAKNTLDLLMHSLKPEDTALYYCARHLKYNWAPNYDYWGQGTQVTVSS
binds	h_Nb1 VHH (VHH) VHH: DVQLQESGGGLVQPGGSLRLSCAASGFTFSSYAMSWVRQAPGKGLEWVSDINSGGDNTDYADSVKGRFTISRDNAKNTLYLQMNSLKPEDTAVYYCARGPKLCFSSWGQGTQVTVSS
binds	h_Nb12 VHH (VHH) VHH: DVQLQESGGGLVQAGGSLRLSCAASGRTFSSRAMGWFRQAPGKEREFVAAISGSGRNTYYADSVKGRFTISRDNAKNSVNLQMNSLKPEDTAVYYCNAAGGGITIATMTQRTQYDYWGQGTQVTVSS
binds	h_Nb9 VHH (VHH) VHH: DVQLQESGGGLVQPGGSLRLSCASSGSIFGLGVKGWYRQPPGNQREMVAQIISGGRISYADSVKGRFTISRDNAKNTVYLQMNSLKPEDTAVYYCNAWGPGQRNYWGRGTQVTVSS
binds	h_Nb2 VHH (VHH) VHH: DVQLQESGGGLVQPGGSLRLSCAASGFTFGDRWMYWLRQAPGKGLEWVSSINPAGRSTYYADSVKGRFTISRDNAKNTLYLQMNSLKSEDTAVYYCTKDPGGYQKGQGTQVTVSS
binds	h_Nb13 VHH (VHH) VHH: DVQLQESGGGLVQPGGSLRLSCAASGSIFSINAMGWYRQAPGKSRELVAAITSGGSTNYADSVKGRFTISRDTAKNTVYLLMNSLEPEDTAVYYCNVERRRPPHYLSEYDFDWGQGTQVTVSS
binds	h_Nb26 VHH (VHH) VHH: DVQLQESGGGLVQPGGSLRLSCAAPGSIFRINAMGWYRQAPGKQRELVAAITSGGSTNYADSVQGRFTISRDNAKNTVYLQMNSLKPEDTAVYYCNVERRRPPHYYSDYDFDWGQGTQVTVSS
